Legend:
[1] = target: RNAP core from E. coli (EcoRNAP core) (E. coli) (UniProt P0A8V2)
[2] = target: RNAP core from E. coli (EcoRNAP core) (E. coli) (UniProt P0A8V2); remark: listed apart in the source
[3] = target: RNA polymerase core (EcoRNAP) (Escherichia coli, UniProt P0A7Z4;P0A8V2;P0A8T7;P0A800 1-329;1-1342;1-1407;2-91); assay: pull-down (Ni-agarose RNA retention); 1 M NaCl wash; 40 mM HEPES pH 7.9, 5 mM MgCl2, 50 mM NaCl, 5% glycerol; binding to Ni-NTA at 18 C, washes with 250 mM NaCl (1 M for core controls), labeling at 22 C; settings: protein: recombinant; tags: C-terminal 6xHis on rpoC; chain copies: 2;1;1;1; 9-bp downstream duplex, 10-nt 3' template overhang; 13-nt RNA with unpaired 5' end
[4] = target: full-length σ^70 subunit of E. coli RNA polymerase (E. coli) (UniProt P00579)
full-length σ^70 subunit of E. coli RNA polymerase (E. coli), sequence (P00579 whole entry): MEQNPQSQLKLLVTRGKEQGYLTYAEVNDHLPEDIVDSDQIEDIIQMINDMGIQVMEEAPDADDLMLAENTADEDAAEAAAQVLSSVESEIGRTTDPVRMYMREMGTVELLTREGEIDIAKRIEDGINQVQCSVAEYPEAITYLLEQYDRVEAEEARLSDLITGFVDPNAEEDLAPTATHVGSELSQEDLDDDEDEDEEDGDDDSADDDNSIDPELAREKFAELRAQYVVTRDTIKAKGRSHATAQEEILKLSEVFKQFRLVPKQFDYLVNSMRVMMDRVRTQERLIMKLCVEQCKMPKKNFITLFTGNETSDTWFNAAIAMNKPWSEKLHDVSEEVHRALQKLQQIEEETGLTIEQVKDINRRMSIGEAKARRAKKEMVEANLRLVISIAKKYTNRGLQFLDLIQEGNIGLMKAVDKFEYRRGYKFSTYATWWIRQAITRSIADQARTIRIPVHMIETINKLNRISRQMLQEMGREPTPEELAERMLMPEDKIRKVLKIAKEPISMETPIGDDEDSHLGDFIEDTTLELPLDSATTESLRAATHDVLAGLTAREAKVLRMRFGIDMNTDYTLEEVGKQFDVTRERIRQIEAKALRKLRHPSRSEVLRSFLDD

RNAP core from E. coli (EcoRNAP core) (E. coli), sequence (P0A8V2 whole entry, looked up): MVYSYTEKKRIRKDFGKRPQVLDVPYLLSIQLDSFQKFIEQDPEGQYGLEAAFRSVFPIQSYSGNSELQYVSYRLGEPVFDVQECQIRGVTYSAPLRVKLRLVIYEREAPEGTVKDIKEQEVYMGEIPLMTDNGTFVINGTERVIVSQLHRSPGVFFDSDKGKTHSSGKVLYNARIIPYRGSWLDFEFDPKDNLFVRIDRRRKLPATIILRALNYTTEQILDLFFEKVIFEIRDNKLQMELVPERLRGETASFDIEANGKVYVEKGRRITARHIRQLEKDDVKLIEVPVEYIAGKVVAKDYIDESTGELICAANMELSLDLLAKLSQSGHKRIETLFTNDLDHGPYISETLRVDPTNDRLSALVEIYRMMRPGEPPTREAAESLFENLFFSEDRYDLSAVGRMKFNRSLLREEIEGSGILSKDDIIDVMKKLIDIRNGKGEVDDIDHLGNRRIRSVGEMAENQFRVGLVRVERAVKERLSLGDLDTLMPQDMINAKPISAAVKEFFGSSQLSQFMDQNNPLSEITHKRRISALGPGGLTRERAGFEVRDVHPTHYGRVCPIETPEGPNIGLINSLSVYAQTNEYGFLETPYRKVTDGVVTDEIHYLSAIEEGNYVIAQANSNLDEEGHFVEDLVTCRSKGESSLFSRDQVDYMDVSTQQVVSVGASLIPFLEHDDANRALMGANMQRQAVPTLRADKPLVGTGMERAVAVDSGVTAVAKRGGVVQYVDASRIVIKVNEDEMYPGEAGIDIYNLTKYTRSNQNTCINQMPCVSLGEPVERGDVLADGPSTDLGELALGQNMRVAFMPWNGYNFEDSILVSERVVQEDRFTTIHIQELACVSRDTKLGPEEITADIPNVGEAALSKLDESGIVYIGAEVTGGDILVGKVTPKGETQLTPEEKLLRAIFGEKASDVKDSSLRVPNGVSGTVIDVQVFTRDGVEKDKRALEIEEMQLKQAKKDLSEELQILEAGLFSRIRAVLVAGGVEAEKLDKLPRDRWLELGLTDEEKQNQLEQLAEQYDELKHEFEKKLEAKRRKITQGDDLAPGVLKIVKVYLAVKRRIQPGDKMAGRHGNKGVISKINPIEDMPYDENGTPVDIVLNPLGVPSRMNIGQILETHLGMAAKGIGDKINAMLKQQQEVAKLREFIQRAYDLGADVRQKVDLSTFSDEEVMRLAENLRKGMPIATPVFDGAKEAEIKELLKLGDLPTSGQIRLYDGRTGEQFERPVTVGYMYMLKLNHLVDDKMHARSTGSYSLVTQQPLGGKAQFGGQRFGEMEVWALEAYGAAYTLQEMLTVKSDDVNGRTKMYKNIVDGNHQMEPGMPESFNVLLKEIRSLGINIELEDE

Molecule: full-length σ^70 subunit of E. coli RNA polymerase (from UniProt P00579 1-613) (natural protein)
- translocation efficiency (fraction of 5-nt RNA) in extension of the 2-nt primer GpC on the LDT scaffold; core alone about 40% [1]: 95%

Molecule: σ_(Δ3–4) fragment of σ^70 (residues 1–448) (from UniProt P00579 1-448) (domain or fragment)
- translocation efficiency (fraction of 5-nt RNA) in extension of the 2-nt primer GpC on the LDT scaffold [2]: < 50%

Molecule: σ_(Δ4.2) fragment of σ^70 (residues 1–553) (from UniProt P00579 1-553) (domain or fragment)
- translocation efficiency (fraction of 5-nt RNA) in extension of the 2-nt primer GpC on the LDT scaffold [2]: < 50%

Molecule: σΔ4 fragment of σ^70 (residues 1–529) (from UniProt P00579 1-529) (domain or fragment)
- translocation efficiency (fraction of 5-nt RNA) in extension of the 2-nt primer GpC on the LDT scaffold [2]: < 50%

B1: SDT scaffold + pRNA13 (mixed)
RNA: AAUUGUGAGCGGA
DNA 1: TGCAATTGTCATCCGCTCA
DNA 2: ACAATTGCA
- binding result [3]: binds

B2: T4 phage coactivator protein AsiA (natural protein)
chain: MNKNIDTVREIITVASILIKFSREDIVENRANFIAFLNEIGVTHEGRKLNQNSFRKIVSELTQEDKKTLIDEFNEGFEGVYRYLEMYTNK
- inhibition by 1 μM AsiA of abortive transcription by σ^70-EcoRNAP at the lacUV5 promoter (AsiA used to disrupt the pair σ4.2 of σ^70 and β-FTH of the core) [4]: 85%
- inhibition by 1 μM AsiA of de novo 3-nt RNA synthesis by σ^70-EcoRNAP on the SDT2 scaffold (AsiA used to disrupt the pair σ4.2 of σ^70 and β-FTH of the core) [4]: 50%

Reference: PMC7948647, “Region 4 of the RNA polymerase σ subunit counteracts pausing during initial transcription”
